Target: T1, BAF-WT (Homo sapiens, UniProt O75531 1-89)
T1 sequence: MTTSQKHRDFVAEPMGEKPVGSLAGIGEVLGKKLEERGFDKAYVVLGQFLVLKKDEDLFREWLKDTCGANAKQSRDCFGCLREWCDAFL
Experiment: ITC

B1: ITC dsDNA (30 bp, same sequence as EMSA probe) (dsDNA)
DNA 1: GAATCCTAACTGGGCGGAGTTATGCTGGTG
DNA 2: CACCAGCATAACTCCGCCCAGTTAGGATTC
In the case of B1, the Ka is reported as 1.89 ± 0.19 uM (as printed for KA; dimension inconsistent, possibly 10^6 M-1).
